Measurements as given in patent US20240010735A1 (EISAI R AND D MANAGEMENT, published 2024).

Assays:
Test in all cases: ELISA: SEAP-His proteins (1 nM) captured on anti-6-His antibody, antibody A 10 µg/mL with human IgG 100 µg/mL, HRP anti-mouse IgG, OD450 as % of human EphA4-SEAP-His
[1] = molecular target: T1, human EphA1 extracellular region-SEAP-His protein (human, UniProt P21709 26-547)
T1 construct: extracellular domain; also called Eph receptor extracellular region-SEAP-His protein; not shown: secretory alkaline phosphatase (SEAP); histidine tag
T1 sequence (looked up): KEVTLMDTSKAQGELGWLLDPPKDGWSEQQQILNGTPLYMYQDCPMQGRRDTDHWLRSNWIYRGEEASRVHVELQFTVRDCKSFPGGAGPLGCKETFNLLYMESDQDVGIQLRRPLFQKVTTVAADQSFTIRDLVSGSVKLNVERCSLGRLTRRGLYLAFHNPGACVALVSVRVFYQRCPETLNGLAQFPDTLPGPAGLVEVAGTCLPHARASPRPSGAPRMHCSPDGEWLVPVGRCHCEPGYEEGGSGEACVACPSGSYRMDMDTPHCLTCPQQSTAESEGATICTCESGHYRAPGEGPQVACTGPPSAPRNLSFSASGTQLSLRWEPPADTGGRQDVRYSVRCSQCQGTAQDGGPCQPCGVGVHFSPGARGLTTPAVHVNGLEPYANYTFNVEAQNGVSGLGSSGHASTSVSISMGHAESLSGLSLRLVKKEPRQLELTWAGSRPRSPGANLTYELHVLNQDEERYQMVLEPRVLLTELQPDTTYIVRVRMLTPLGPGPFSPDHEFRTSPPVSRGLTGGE
Method: (§1) Rabbit anti-6-His antibodies (Bethel Laboratories) were coated onto the wells of a 96-well plate (Nunc). After incubating at 4° C. overnight, the wells were blocked at room temperature for 1 hour by 1% Block Ace (DS Pharma Biomedical). After washing 3 times with 0.05% Tween 20/PBS (Thermo […]), each Eph receptor of human extracellular region-SEAP-His protein (final concentration 1 nM) was seeded into each well, and incubated at room temperature for 1 hour. After washing 3 times, human IgG solution (100 μg/mL, Mitsubishi Pharma Corporation) and antibody A (10 μg/mL) were supplemented to the wells, and incubated at room temperature for 1 hour. Horseradish peroxidase-labeled donkey anti-mouse IgG antibody (Jackson ImmunoResearch Laboratories) was added, and incubated at room, temperature for 1 hour. After washing 3 times, TMBZ (3,3′,5,5′-tetramethylbenzidine, Sigma) solution was added to the wells, and upon confirmation of modest coloring, an equal amount of quenching solution (1 N H₂SO₄, Wako Pure Chemicals) was added to the wells, and absorbance at 450 nm was read by a microplate reader (PerkinElmer).

[2] = molecular target: T2, human EphB1 extracellular region-SEAP-His protein (human, UniProt P54762 18-540)
T2 construct: extracellular domain; also called Eph receptor extracellular region-SEAP-His protein; not shown: secretory alkaline phosphatase (SEAP); histidine tag
T2 sequence (looked up): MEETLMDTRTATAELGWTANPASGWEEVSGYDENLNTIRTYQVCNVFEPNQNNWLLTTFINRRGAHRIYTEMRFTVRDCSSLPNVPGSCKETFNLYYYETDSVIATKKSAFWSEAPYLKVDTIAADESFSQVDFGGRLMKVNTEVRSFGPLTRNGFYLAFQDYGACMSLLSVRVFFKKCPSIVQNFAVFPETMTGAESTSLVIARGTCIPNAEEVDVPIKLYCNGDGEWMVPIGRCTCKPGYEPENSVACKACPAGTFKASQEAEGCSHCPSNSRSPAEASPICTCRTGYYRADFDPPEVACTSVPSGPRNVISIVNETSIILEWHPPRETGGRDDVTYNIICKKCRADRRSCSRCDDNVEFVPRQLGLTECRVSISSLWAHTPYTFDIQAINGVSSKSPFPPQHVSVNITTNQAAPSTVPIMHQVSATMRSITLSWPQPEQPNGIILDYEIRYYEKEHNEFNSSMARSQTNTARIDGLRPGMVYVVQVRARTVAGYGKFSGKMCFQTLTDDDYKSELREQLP
Method: as §1

[3] = molecular target: T3, human EphB3 extracellular region-SEAP-His protein (human, UniProt P54753 34-559)
T3 construct: extracellular domain; also called Eph receptor extracellular region-SEAP-His protein; not shown: secretory alkaline phosphatase (SEAP); histidine tag
T3 sequence (looked up): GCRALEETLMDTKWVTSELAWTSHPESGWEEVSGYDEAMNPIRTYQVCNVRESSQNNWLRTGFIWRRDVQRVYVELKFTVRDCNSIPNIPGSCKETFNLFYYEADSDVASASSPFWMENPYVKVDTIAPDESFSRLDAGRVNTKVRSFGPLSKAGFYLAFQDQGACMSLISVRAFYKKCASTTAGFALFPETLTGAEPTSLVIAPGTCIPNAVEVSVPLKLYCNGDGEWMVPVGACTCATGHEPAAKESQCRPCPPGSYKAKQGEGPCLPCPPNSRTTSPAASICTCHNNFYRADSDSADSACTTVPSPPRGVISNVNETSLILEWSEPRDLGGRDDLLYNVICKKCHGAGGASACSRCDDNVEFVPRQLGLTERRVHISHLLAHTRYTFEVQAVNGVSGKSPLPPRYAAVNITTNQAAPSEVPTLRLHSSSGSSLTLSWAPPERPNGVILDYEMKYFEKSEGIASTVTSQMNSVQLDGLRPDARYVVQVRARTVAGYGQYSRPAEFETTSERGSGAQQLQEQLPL
Method: as §1

Measured: binding result

B1: mouse anti-EphA4 monoclonal antibody (antibody A) (antibody, mouse IgG1, kappa, V domains shown)
VH: QVQLKQSGPSLVQPSQSLSITCTVSGFSLTRYGVHWVRQSPGKGLEWLGVIWRGGSTDYNAAFMSRLSITKDNSKSQVFFKMNSLQADDTAIYYCAKESLFGVYYDYGYYSMDYWGQGTSVTVSS
VL: DIQMTQSPSSLSASLGERVSLTCRASQEISGYLSWLQQKPDGTIKRLIYAASTLDSGVPKRFSGSRSGSDYSLTISSLESEDFADYYCLQYASYPLTFGAGTKLELKR
notes: purified from hybridoma supernatant
no binding (tested: 10 µg/mL): [1] | [2] | [3]
